# Patent US20230143604A1, “QW DOSING OF GIP RECEPTOR AGONIST PEPTIDE COMPOUNDS AND USES THEREOF” (TAKEDA PHARMACEUTICAL COMPANY LIMITED, priority 2020, published 2023)
# Starred links: 1 amine or outer side, 2 acyl side, 3 side chain; linkers in the order of their positions; H or OH if unused. Non-standard residues stand in square brackets, D forms with d. Groups on a side chain read outwards from the residue. No end group written: not given here. *: point of attachment. C20 diacid = O=C(O)CCCCCCCCCCCCCCCCCCC(=O)*; C18 diacid = O=C(O)CCCCCCCCCCCCCCCCC(=O)*; C17 diacid = O=C(O)CCCCCCCCCCCCCCCC(=O)*; γGlu = O=C(O)[C@H](CCC(=O)[*:2])N[*:1]; NMeY = CN[C@@H](Cc1ccc(O)cc1)C(=O)O; AEEA = NCCOCCOCC(=O)O; Aib = CC(C)(N)C(=O)O
# T1: full-length human GIPR with an N-terminal FLAG tag (human, UniProt P48546 22-466)
# T1 sequence (looked up): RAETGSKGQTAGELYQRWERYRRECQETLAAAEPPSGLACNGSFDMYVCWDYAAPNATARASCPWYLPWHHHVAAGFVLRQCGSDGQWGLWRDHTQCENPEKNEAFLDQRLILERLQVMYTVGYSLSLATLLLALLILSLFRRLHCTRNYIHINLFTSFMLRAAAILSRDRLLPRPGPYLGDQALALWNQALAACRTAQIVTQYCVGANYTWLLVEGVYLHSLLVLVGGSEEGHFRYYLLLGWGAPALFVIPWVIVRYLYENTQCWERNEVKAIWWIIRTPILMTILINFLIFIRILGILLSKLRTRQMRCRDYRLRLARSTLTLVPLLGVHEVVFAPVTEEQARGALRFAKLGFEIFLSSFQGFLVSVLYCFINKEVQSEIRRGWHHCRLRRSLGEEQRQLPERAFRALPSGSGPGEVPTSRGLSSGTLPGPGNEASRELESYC
# Key:
# [1] = target: full-length human GLP-1R with an N-terminal FLAG tag (human, UniProt P43220 24-463); assay: cell-based or functional assay
# [2] = target: T1, full-length human GIPR with an …; assay: cell-based or functional assay
Binder,"Human GLP1R cAMP EC50, HEK293T [1]","Human GIPR cAMP EC50, HEK293T [2]"
[NMeY][Aib]EGTFISDYSI[Aib]LDR[Aib]AQ[Aib]K([2OEGgEgE-C18 diacid])FVNWLLAQSPSSGAPPPS-NH2 [Compound No. 90],72.4 nM,0.0005 nM
[NMeY][Aib]EGTFISDYSI[Aib]LDR[Aib]AQ[Aib]K([AEEA-AEEA-γGlu-γGlu-C17 diacid])FVNWLLAQSPSSGAPPPS-NH2 [Compound No. 94],63.1 nM,0.0006 nM
[NMeY][Aib]EGTFISDYSI[Aib]LDR[Aib]AQ[Aib]K([AEEA-γGlu-γGlu-C18 diacid])FVNWLLAQSPSSGAPPPS-NH2 [Compound No. 93],29.5 nM,0.0006 nM
[NMeY][Aib]EGTFISDYSIALDR[Aib]K([AEEA-AEEA-γGlu-γGlu-C20 diacid])Q[Aib]NFVNWLLAQSPSSGAPPPS-NH2 [Compound No. 99],479 nM,0.0005 nM
[NMeY][Aib]EGTFISDYSIALDR[Aib]AQ[Aib]K([GGPAPAP-C18 diacid])FVNWLLAQSPSSGAPPPS-OH [Compound No. 103],29.5 nM,0.0017 nM
[NMeY][Aib]EGTFISDYSIALDR[Aib]K([GGPAPAP-C18 diacid])Q[Aib]DFVNWLLAQSPSSGAPPPS-OH [Compound No. 102],117 nM,0.0005 nM
[NMeY][Aib]EGTFISDYSIALDR[Aib]AQ[Aib]K([AEEA-AEEA-γGlu-γGlu-C18 diacid])FVNWLLAQSPSSGAPPPS-NH2 [Compound No. 97],52.5 nM,0.0006 nM
[NMeY][Aib]EGTFISDYSI[Aib]LDR[Aib]AQ[Aib]K([AEEA-AEEA-γGlu-C18 diacid])FVNWLLAQSPSSGAPPPS-NH2 [Compound No. 91],30.9 nM,0.0005 nM
"YXEGTFISDYSIXXDRXAQXNFVNWLLAQSPSSGAPPPS (N-methyl Tyr 1; Aib at 2,13,17,20; Lys(G5-C17 diacid) at 14; C-terminal OH) [Compound No. 95]",17.4 nM,0.0004 nM
"YXEGTFISDYSIXXDRXAQXNFVNWLLAQSPSSGAPPPS (N-methyl Tyr 1; Aib at 2,13,17,20; Lys(G5-C18 diacid) at 14; C-terminal OH) [Compound No. 96]",9.55 nM,0.0003 nM
[NMeY][Aib]EGTFISDYSI[Aib]LDR[Aib]AQ[Aib]K([AEEA-γGlu-AEEA-γGlu-C18 diacid])FVNWLLAQSPSSGAPPPS-NH2 [Compound No. 92],36.3 nM,0.0006 nM
[NMeY][Aib]EGTFISDYSIALDR[Aib]AQ[Aib]K([2OEGgEgE-C17 diacid])FVNWLLAQR-OH [Compound No. 9],7.94 nM,0.0004 nM
[NMeY][Aib]EGTFISDYSI[Aib]LDR[Aib]K([AEEA-AEEA-γGlu-γGlu-C18 diacid])Q[Aib]NFVNWLLAQSPSSGAPPPS-NH2 [Compound No. 100],> 1000 nM,0.0006 nM
[NMeY][Aib]EGTFISDYSI[Aib]LDR[Aib]AQ[Aib]K([AEEA-AEEA-γGlu-γGlu-C20 diacid])FVNWLLAQRPSSGAPPPS-NH2 [Compound No. 101],39.8 nM,0.0009 nM
